B1: DnaJ homolog subfamily C member 5, residues 16 to 77; numbered along this chain, Q9H3Z4 (parent)
chain: LYHVLGLDKNATSDDIKKSYRKLALKYHPDKNPDNPEAADKFKEINNAHAILTDATKRNIYD

Variants of: B1
Assay: abundance fitness (aPCA) (normalised: wild type 0, dead -1); higher = more abundant; growth selection in yeast, the domain comes from the species named
Conditions: Homo sapiens

Abundance fitness: each site, then its substitutions
D54: K -0.056 | A -0.214 | Q -0.666 | G -0.304 | Y -1.01 | C -0.499 | V -0.613 | R -0.382 | F -1.01 | E -0.278 | L -0.632 | N 0.044 | M -0.634 | W -0.907 | T -0.512
A50: P -0.773 | L -0.386 | S 0.059 | C -0.688 | M -0.087 | T -0.072 | G -0.198 | R -0.009 | E -0.562 | W -0.748 | Q -0.294 | V -0.19 | Y -0.604 | I -0.334 | F -0.61 | H -0.237 | K -0.091
T56: C -0.069 | Q -0.417 | D -0.095 | E 0.097 | G -0.09 | L -0.421 | Y -0.424 | M -0.334 | P -0.516 | H -0.264 | F -0.499 | S -0.15 | I -0.425 | V -0.396 | K -0.101 | R -0.246 | A -0.233 | W -0.475
H49: D -0.4 | S -0.279 | E -0.362 | G -0.052 | W -0.153 | Q -0.161 | R 0.029 | V -0.091 | M -0.002 | Y -0.251 | C -0.405 | T -0.26 | N -0.062 | L -0.291 | I -0.639 | F 0.149 | P -0.423 | A 0.009 | K -0.032
I60: C 0.109 | Q 0.168 | D 0.493 | E 0.522 | Y -0.074 | W 0.008 | A 0.257 | S 0.258 | M 0.114 | G 0.223 | H -0.135 | L 0.077 | V 0.176 | R 0.08 | T 0.054 | P -0.039 | K 0.197
I51: W -0.712 | M -0.131 | A -0.146 | F -0.326 | R -0.318 | C -0.142 | P -0.166 | T -0.08 | Y -0.353 | E -0.301 | N -0.304 | L -0.149 | D 0.123 | V 0.106 | Q 0.036 | G -0.257 | S -0.262
E44: N -0.196 | M -0.097 | Q -0.301 | S -0.3 | A -0.135 | F -0.744 | P -0.626 | C -0.524 | R -0.435 | D -0.154 | Y -0.742 | I -0.73 | T -0.518 | L -0.504 | G -0.527 | K -0.376 | V -0.264 | W -0.731
I45: G -0.253 | F -0.747 | H -0.792 | W -0.841 | K -0.263 | P -0.425 | N -0.381 | Q -0.45 | S -0.47 | E -0.203 | D -0.311 | V 0.007 | T -0.216 | R -0.623 | C -0.44 | Y -0.366 | L -0.026 | M -0.418 | A -0.181
L52: P -0.292 | F -0.295 | N -1.02 | K -0.419 | A -0.303 | E -0.293 | V -0.524 | C -0.963 | R -0.479 | T -0.446 | Q -0.572 | S -0.493 | I -0.592 | W -0.454 | M -0.395 | G -0.555 | D -0.381 | H -0.767
K41: G -0.433 | V -0.278 | S -0.223 | F -0.447 | R -0.119 | W -0.4 | Q -0.333 | T -0.197 | Y -0.254 | I -0.211 | P -1.1 | N -0.434
A55: G -0.151 | F -0.334 | C -0.37 | K -0.002 | I -0.406 | P -0.036 | M -0.258 | H -0.287 | S -0.135 | L -0.26 | Q 0.028 | W -0.413 | D -0.514 | V -0.14 | Y -0.423 | E -0.061 | R -0.156 | N -0.117
N59: L -0.139 | C 0.032 | A 0.197 | M -0.179 | S -0.029 | H -0.125 | E 0.152 | R -0.107 | Q 0.007 | I -0.044 | V -0.121 | F -0.151 | G 0.101 | D -0.234 | W -0.396 | Y -0.471
F42: Q -0.233 | M 0.223 | L 0.202 | A -0.28 | V -0.197 | D -0.119 | G -0.278 | H -0.421 | K -0.188 | C -0.243 | R -0.17 | W -0.05 | Y -0.017 | S -0.219 | N -0.237 | I -0.135 | E -0.192 | P -0.41
N47: S -0.259 | R -0.142
T53: N 0.101 | G 0.07 | K -0.011 | D -0.093 | S -0.116 | Q -0.186 | L -0.032 | I -0.286 | F -0.491 | P -0.678 | A -0.118 | R -0.127 | C -0.126 | E -0.277 | W -0.579 | M -0.157
K57: Q -0.1 | C -0.672 | P -0.593 | S -0.349 | E -0.023 | A -0.079 | I -0.511 | L -0.399 | D -0.079 | M -0.43 | T -0.415 | G -0.373 | R -0.059 | W -0.99 | N -0.575 | F -1.01 | V -0.656
N46: T 0.256 | I -0.178 | G -0.082 | A 0.272 | M -0.113 | C 0.174 | V 0.182 | L -0.169 | D -0.578 | F -0.065 | Q -0.035 | H -0.081 | P -0.653 | W -0.778 | R -0.017 | E 0.093 | K -0.058 | Y -0.312
Y61: E 0.157 | G 0.226 | D 0.22 | I -0.129 | A 0.165 | K -0.174 | L -0.09 | H 0.054 | C -0.063 | M -0.218 | F -0.273
A48: F -1.72 | I -0.769 | W -1.58 | Q -0.82 | N -0.903 | D -0.16 | S -0.277 | E -0.387 | M -1.06 | G -0.455 | T -0.777 | H -0.477 | Y -0.748 | C -0.85 | V -0.777 | P -0.384
K43: E -0.34 | S -0.043 | D 0.015 | A 0.299 | Q 0.362 | P -1.02 | R -0.263 | T 0.051 | G -0.116 | M 0.382 | W -0.276 | F 0.349 | Y 0.364 | N -0.23 | H 0.519
R58: F -0.617 | M -0.471 | A -0.044 | I -0.503 | S -0.114 | P -0.119 | C -0.442 | D -0.348 | W -0.636 | Y -0.575 | V -0.363 | G -0.21 | L -0.43 | Q -0.161 | E 0.109 | H -0.275 | N -0.114

Source: the Human Domainome abundance scans (Beltran et al. 2025)
